Source: paper PMC11066036

Target: T1, HPK1 intact citron homology domain fragment (C428-E821), untagged, Q92918-2
T1 chain: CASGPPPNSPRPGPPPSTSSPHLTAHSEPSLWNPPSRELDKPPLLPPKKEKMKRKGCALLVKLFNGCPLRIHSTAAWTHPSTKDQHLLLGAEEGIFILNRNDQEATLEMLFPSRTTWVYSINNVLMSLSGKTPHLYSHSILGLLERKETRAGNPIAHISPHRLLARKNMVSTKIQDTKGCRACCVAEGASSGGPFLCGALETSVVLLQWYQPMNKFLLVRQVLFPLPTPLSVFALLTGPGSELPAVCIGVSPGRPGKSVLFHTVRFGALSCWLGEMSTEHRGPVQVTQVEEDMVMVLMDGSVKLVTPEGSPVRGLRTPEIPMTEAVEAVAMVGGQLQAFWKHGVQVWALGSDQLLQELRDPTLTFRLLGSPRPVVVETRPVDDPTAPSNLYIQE
Experiment: SPR
Conditions: chain shown with the change; left plot; plateau of the last (highest) of five successive CHD injections, about 800-900 s; CHD concentrations not given; read off a plot

B1: HPK1 kinase domain wild type (D2-N293) S171A (protein)
chain: DVVDPDIFNRDPRDHYDLLQRLGGGTYGEVFKARDKVSGDLVALKMVKMEPDDDVSTLQKEILILKTCRHANIVAYHGSYLWLQKLWICMEFCGAGSLQDIYQVTGSLSELQISYVCREVLQGLAYLHSQKKIHRDIKGANILINDAGEVRLADFGISAQIGATLARRLAFIGTPYWMAPEVAAVALKGGYNELCDIWSLGITAIELAELQPPLFDVHPLRVLFLMTKSGYQPPRLKEKGKWSAAFHNFIKVTLTKSPKKRPSATKMLSHQLVSQPGLNRGLILDLLDKLKN
response (Response Units): 42
